Among the data in publication PMC3249379 are Kd and stoichiometry N values, retold here.

One may read the Kd as a measure of binding affinity in units of concentration. A higher Kd goes with weaker binding. What is called stoichiometry N is a count of units in the complex or per binding partner.

Test in all cases: AUC
Experiment [1] concerns the target GluA4 flip ectodomain, L484Y mutant (R. norvegicus).
The target is the same in experiment [2]. The source holds these as a separate data set.
In experiment [3] the target is GluA4 flip ectodomain, wild type (NTD and LBD in a tandem array) (R. norvegicus).

Read-outs that look alike come from different tables or passages of the source.

Turning to “GluA4 flip ectodomain, L484Y mutant (domain or fragment)”, the Kd in experiment [1] came out at 1500 nM. In experiment [2], this substance gave a Kd of 1100 nM and a stoichiometry N of 4.

Take “GluA4 flip ectodomain, wild type (NTD and LBD in a tandem array) (domain or fragment)”: in experiment [3], the Kd came out at 300 nM and the stoichiometry N is 2.
